Target: phosphoenolpyruvate carboxylase (Ppc; cce_3822) (Cyanothece ATCC 51142 (endogenous in the cells))
Test: SEC

Rapp (Mapp / Mmono): 4.6
Substance: phosphoenolpyruvate carboxylase (Ppc; cce_3822) (enzyme)

Reference: PMC6400067
